Laboratory results taken from patent US20100298213A1, “Pharmaceutically Active Insulin Receptor-Modulating Molecules” (Novo Nordisk A/S, priority 2004, published 2010).
Positions count from the first letter of the chain named. Square brackets hold non-standard residues; d marks the D form. Ends that are not written are not given here. Dip = N[C@H](C(=O)O)C(c1ccccc1)c1ccccc1; Orn = NCCC[C@H](N)C(=O)O; Aib = CC(C)(N)C(=O)O

B1: S671 (peptide)
peptide: Ac-SLEEEWAQIQCEVWGRGCPSESFYDWFERQLG
modifications: cysteine pairing not given here
B2: 634 (peptide)
peptide: Ac-SLEEEWAQIQCEVWGRGCPSESFYDWFEAQLHA
modifications: cysteine pairing not given here
B3: 674 (peptide)
peptide: Ac-SLEHEWAQIHCEVYGRGCPSESFYHWFERQL
modifications: cysteine pairing not given here
B4: 658 (peptide)
peptide: Ac-SLEEEWAQIQCEVWGRGCPSGGSTFEDYLHNVVFVPRPS
modifications: cysteine pairing not given here
B5: 639 (peptide)
peptide: Ac-HGLEEEWAQIQCEVWGRGCPSESFYDWFEAQLHA
modifications: cysteine pairing not given here
B6: 616 (peptide)
peptide: HQLEEEWQAIQCELWGRGCPSEDFYDWFEAQLHA
B7: 618 (peptide)
peptide: B6 peptide with Q2E, Q8K, A9R, Q11E
B8: 732 (peptide)
peptide: YEEESFYGWFERQLGEE
B9: 670 (peptide)
peptide: GSLDESFYDWFERQLGKKY
B10: 699 (peptide)
peptide: Ac-SLEEEWAQVECEVYGRGCPSESFYDWFERQL
modifications: cysteine pairing not given here
B11: 617 (peptide)
peptide: HLEEEWSEIQCELWGRGCPSEDFYDWFEAQLHA
B12: 682 (peptide)
peptide: SLEEEWAQVECEVYGRCPSESFYDWFERQL
B13: 620 (peptide)
peptide: Ac-HLEEEWSEIQCELWGRGCPSEDFYDWFEAQLHA
modifications: cysteine pairing not given here
B14: 668 (peptide)
peptide: Ac-SLEEEWAQIQCEVWGRGCPSESFYGWFQAQL
modifications: cysteine pairing not given here
B15: 680 (peptide)
peptide: SLEEHWAQVECEVYGRGCPSESFYDWFERQL
B16: 698 (peptide)
peptide: B15 peptide with A7H, G15H, G17H
B17: 689 (peptide)
peptide: B15 peptide with H5Y
B18: 695 (peptide)
peptide: B15 peptide with H5E, G15H
B19: 688 (peptide)
peptide: B15 peptide with H5E, V9H
B20: 691 (peptide)
peptide: B15 peptide with H5E, A7Y
B21: 697 (peptide)
peptide: B15 peptide with A7H
B22: 684 (peptide)
peptide: B15 peptide with H5E, G15Q
B23: 694 (peptide)
peptide: B15 peptide with H5E, G17F
B24: 681 (peptide)
peptide: B15 peptide with H5E, A7G
B25: 690 (peptide)
peptide: B15 peptide with H5V
B26: 693 (peptide)
peptide: B15 peptide with H5E, G17V
B27: 683 (peptide)
peptide: B15 peptide with H5E, G17N
B28: 692 (peptide)
peptide: B15 peptide with H5E, G17H
B29: 655 (peptide)
peptide: Ac-SLEEEWAQIQCEVWGRGCQRPEPFYDWFAEQLDD
modifications: cysteine pairing not given here
B30: 637 (peptide)
peptide: Ac-SLEEEWAQIECEVYGRGCPSEGFYNAIELLS
modifications: cysteine pairing not given here
B31: 672 (peptide)
peptide: Ac-SLEEEWAQIQAEVWGRGAPSESFYDWFERQL
B32: S642 (peptide)
peptide: Ac-SLEEEWAQIQCEVWGRGCQRPEPFYDWFERQL
modifications: cysteine pairing not given here
B33: 662 (peptide)
peptide: Ac-SLEEEWAQIQCEVWGRGCPSEAFYDWFHEQLDD
modifications: cysteine pairing not given here
B34: S665 (peptide)
peptide: Ac-SLEEEWAQIECEVYGRGCPSESFYHWFERQL
modifications: cysteine pairing not given here
B35: 643 (peptide)
peptide: Ac-SLEEEWAQIQCELWGRGCPSESFYDWFERQL
modifications: cysteine pairing not given here
B36: 649 (peptide)
peptide: SLEEEWAQIEAEVWGRGAPPSESFYDWFERQLGY

Target: human insulin receptor isoform with exon 11 (human) (UniProt P06213)
Experiment: receptor binding, standard methods (FIG. 2)
Settings: not given

Row | relative affinity | Molecule
1 | 98 | B1

Target: rat insulin receptor isoform with exon 11 (rat) (UniProt P15127)
Experiment: receptor binding, standard methods (FIG. 2)
Settings: not given

Row | relative affinity | Molecule
2 | 65 | B1

Target: insulin receptor on mouse adipocytes (mouse, UniProt P15208 28-1372)
Experiment: cell-based or functional assay
Settings: not given

Chain of insulin receptor on mouse adipocytes (P15208 28-1372): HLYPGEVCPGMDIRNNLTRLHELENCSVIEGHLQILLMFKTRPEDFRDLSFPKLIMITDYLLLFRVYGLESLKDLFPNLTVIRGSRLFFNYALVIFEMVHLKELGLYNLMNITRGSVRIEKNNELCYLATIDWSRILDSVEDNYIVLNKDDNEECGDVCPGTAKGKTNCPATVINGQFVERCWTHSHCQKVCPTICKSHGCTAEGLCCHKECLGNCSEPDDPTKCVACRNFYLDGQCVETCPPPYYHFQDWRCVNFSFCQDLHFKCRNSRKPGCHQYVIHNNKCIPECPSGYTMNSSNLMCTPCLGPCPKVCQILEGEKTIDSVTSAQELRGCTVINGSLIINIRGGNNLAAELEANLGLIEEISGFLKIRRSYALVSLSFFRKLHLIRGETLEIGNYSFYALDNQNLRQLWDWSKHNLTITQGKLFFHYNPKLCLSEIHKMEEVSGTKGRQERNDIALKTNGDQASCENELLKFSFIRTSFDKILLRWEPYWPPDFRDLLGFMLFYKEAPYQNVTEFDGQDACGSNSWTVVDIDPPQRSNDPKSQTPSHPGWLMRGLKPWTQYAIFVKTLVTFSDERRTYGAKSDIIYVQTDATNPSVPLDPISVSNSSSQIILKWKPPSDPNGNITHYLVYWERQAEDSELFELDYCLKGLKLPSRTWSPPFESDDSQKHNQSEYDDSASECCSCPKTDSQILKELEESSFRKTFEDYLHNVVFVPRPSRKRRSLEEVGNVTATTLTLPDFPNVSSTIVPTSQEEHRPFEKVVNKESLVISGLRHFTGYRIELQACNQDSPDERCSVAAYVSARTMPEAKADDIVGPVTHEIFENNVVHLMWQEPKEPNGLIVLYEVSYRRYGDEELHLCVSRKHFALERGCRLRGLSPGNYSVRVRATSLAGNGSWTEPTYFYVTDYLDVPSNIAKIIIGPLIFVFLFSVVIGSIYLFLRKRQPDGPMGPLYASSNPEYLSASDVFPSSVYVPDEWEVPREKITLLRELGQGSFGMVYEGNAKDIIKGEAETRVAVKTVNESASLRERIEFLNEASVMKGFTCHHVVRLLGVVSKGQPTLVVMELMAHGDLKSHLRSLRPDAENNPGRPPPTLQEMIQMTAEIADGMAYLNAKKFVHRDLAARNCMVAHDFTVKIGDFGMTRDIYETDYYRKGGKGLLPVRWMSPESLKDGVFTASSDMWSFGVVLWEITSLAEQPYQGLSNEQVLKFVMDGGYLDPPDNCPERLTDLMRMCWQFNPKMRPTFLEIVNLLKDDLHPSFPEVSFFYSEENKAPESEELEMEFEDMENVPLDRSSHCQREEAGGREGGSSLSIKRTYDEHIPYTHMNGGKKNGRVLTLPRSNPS

Row | EC50 (FFC) | EC50 (FFC) rel. to HI | Molecule
3 | 0.083 nM | 66% | B2
4 | 230 nM |  | B3
5 | ~1000 nM |  | B4
6 | 0.78 nM | 5% | B5
7 | 1.5 nM | 4% | B6
8 | 4.6 nM | 1% | B7
9 | > 2000 nM |  | B8
10 | 850 nM |  | B9
11 | 4.3 nM | 1.5% | B10
12 | 3.9 nM | 1% | B11
13 | 7.7 nM | 0.8% | B12
14 | 69 nM | 1% | B13
15 | 2.3 nM | 2.8% | B14
16 | 16 nM | 0.4% | B15
17 | 190 nM | 0.03% | B16
18 | 15 nM | 0.4% | B17
19 | 9.8 nM | 0.6% | B18
20 | 680 nM |  | B19

Row | EC50 (FFC) | EC50 (FFC) rel. to HI | Molecule
21 | 25 nM | 0.3% | B20
22 | 72 nM | 0.1% | B21
23 | 15 nM | 0.4% | B22
24 | 26 nM | 0.3% | B23
25 | 13 nM | 0.4% | B24
26 | 16 nM | 0.4% | B25
27 | 75 nM | 0.1% | B26
28 | 2.1 nM | 2.9% | B27
29 | 7.7 nM | 0.8% | B28
30 | 0.63 nM | 8.7% | B29
31 | 39 nM | 0.1% | B30
32 | 25 nM | 0.3% | B31
33 | 0.14 nM | 39% | B32
34 | 2 nM | 3.3% | B33
35 | 1.9 nM | 3.4% | B34
36 | 0.097 nM | 57% | B35
37 | 0.1 nM | 65% | B1
38 | 14 nM | 0.4% | B36

Target: T1, pig insulin receptor isoform without exon 11 (pig, UniProt F1SCK8 28-746; F1SCK8 751-1370)
T1 construct: also called PIR-11; PIR - 11
Experiment: receptor binding, standard methods (FIG. 2)
Settings: not given
Description: (§1) A number of IRBPs (S519; S557; S597; S636; S667; S733; S671; S660; S696; S574; S700; S626; and S726), some of which described in the prior patent documents, were applied to A and B isoforms (−11 and +11 isoforms) of the human, rat, and pig insulin receptors (HIR, RIR, and PIR) using standard methods.

T1 sequence (alpha, as listed by the source limits assumed, stated change not applied, form in doubt, chain 1 of 2): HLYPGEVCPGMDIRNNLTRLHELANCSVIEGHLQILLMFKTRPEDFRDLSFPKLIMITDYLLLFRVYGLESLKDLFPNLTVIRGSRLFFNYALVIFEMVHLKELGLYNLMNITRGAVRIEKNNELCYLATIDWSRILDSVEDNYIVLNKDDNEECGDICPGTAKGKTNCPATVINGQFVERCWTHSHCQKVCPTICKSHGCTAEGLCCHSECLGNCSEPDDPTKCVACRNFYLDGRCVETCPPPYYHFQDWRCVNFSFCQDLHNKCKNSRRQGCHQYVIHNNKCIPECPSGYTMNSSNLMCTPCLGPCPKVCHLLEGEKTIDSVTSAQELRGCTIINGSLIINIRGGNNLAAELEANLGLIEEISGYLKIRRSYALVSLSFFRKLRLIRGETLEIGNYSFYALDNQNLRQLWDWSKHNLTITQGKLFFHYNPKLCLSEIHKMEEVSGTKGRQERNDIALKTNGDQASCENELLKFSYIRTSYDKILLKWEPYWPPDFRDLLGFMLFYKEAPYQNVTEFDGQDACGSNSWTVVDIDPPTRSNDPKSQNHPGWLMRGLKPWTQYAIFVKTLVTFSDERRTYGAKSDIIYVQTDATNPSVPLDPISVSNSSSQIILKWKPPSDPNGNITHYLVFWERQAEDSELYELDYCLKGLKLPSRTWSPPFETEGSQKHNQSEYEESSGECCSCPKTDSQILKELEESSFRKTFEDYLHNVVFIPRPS
T1 sequence (beta, as listed by the source limits assumed, stated change not applied, form in doubt, chain 2 of 2): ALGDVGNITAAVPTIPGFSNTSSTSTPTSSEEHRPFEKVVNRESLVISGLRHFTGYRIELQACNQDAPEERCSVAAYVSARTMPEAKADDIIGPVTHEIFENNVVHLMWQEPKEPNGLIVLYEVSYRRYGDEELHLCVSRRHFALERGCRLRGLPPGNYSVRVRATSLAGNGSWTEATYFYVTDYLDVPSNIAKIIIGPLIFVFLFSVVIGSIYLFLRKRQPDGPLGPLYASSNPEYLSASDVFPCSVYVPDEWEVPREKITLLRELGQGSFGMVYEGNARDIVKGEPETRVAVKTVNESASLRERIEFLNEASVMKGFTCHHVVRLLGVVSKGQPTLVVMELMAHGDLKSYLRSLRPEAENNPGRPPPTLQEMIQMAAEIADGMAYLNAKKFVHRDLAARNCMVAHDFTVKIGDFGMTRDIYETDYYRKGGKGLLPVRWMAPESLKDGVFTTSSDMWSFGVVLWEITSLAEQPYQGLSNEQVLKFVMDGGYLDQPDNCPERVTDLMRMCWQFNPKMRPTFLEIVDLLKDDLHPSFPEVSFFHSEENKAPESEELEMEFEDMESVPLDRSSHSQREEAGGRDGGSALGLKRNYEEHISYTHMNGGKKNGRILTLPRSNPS

Row | relative affinity | Molecule
39 | 23 | B1

Target: T2, human insulin receptor isoform without exon 11 (human, UniProt P06213-2 28-1370, limits assumed)
T2 construct: also called HIR-11; HIR - 11
Experiment: receptor binding, standard methods (FIG. 2)
Settings: not given
Description: as §1

Row | relative affinity | Molecule
40 | 86 | B1

Target: T3, rat insulin receptor isoform without exon 11 (rat, UniProt P15127-2 27-1371, limits assumed)
T3 construct: also called RIR-11; RIR - 11
Experiment: receptor binding, standard methods (FIG. 2)
Settings: not given
Description: as §1

T3 sequence (P15127 other isoform, or with tags, fused parts or gaps limits assumed): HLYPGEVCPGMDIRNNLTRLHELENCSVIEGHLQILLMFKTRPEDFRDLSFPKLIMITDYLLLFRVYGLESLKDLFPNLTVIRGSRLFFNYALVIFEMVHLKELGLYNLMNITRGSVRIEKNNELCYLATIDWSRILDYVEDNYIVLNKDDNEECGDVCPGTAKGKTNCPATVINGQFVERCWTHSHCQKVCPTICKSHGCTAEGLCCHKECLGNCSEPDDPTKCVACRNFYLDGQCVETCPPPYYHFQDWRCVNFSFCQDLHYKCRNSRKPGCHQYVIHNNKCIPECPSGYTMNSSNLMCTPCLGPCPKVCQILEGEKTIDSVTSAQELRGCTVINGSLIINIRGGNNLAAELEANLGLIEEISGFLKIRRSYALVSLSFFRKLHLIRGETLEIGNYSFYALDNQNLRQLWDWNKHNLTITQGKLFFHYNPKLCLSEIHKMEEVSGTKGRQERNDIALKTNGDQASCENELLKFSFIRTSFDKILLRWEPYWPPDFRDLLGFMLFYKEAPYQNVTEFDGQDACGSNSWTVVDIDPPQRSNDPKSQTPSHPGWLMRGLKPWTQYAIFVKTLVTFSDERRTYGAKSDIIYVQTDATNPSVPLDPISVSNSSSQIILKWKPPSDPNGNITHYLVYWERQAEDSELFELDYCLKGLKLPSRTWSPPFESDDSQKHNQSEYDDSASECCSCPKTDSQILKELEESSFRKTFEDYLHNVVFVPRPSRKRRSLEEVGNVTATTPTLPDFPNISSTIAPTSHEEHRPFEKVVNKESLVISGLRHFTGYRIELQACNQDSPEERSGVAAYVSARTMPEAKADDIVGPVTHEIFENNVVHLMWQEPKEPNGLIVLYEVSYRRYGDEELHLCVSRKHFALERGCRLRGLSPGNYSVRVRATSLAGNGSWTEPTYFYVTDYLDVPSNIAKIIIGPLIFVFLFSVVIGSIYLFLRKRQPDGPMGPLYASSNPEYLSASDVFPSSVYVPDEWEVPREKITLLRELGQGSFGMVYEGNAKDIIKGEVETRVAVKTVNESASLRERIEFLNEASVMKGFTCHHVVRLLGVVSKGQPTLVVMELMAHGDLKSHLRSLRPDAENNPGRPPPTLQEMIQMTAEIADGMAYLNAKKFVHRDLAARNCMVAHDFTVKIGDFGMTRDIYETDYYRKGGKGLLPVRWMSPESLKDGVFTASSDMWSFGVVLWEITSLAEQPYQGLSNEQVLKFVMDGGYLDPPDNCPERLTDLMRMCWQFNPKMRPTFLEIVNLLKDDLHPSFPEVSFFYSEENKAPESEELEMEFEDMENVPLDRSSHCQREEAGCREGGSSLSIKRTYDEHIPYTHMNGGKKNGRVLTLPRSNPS

Row | relative affinity | Molecule
41 | 39 | B1

Target: human IR (HIR) (Homo sapiens, UniProt P06213)
Experiment: Human IR affinity (Kd)
Format: binding
Settings: Kd value expressed relative to that of human insulin in the same assay

Row | Kd (HIR) rel. to HI | Molecule
42 | 6% | Ac-SLEHEW[Aib]QIQCEVWGRPCPSEP[Dip]YGWFHEQLGPP (cysteine pairing not given here) [compound 872]
43 | 4% | Ac-SLEEEWAQIQCEVWGRGCPK(ε-carboxyfluorescein)ESFYGWFERQLG [compound 871]
44 | 8% | Ac-SLE-Aib-EW-Aib-QIQCEVWGRPCPSEP-Dip-YGWFHEQLGPP [compound 874]
45 | 4% | SLEHEWAQIQCEVWGRGCPSEPFYGWFLAQLG [compound 799]
46 | 07% | SLEHEWAQIQCEVWGRGCPSEPFYGWFERQLG [compound 800]
47 | 12% | Ac-SLEEEW[Aib]QIQCEVWGRGCPSESFYDWFERQL (cysteine pairing not given here) [compound 875]
48 | 24% | Ac-SLEEEWAQIQCEVWG[Orn]GCPSESFYGWFERQLG (cysteine pairing not given here) [compound 805]

Row | Molecule | Kd (HIR) rel. to HI
49 | Ac-SLE-Aib-EW-Aib-QIQCEVWGRGC-pox-FYGWFE-Aib-QLG [compound 806] | 3%
50 | Ac-SLEEEWAQIQCEVWGRGC-pox-FYGWFERQLG [compound 802] | 6%
